Results from the supplement of paper PMC12764529.
± gives the half width of the 95% confidence interval.

Assay: folding stability dG unfold (combined trypsin and chymotrypsin); higher = more stable
Outline: (§1)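 Bayesian fitting of sequencing counts gave K50 for each design. Unfolding free energy followed by setting this against a sequence-predicted unfolded-state K50 and a shared folded-state K50, either per protease or with trypsin and chymotrypsin combined. The designs, under 80 residues and lacking cysteine, were digested in a PA-tagged cDNA display format at 11 threefold-diluted protease concentrations and without protease, and only those with AlphaFold2 dimer inter-PAE above 15 were kept.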

| Sequence | folding stability dG unfold [kcal/mol] |
| --- | --- |
| SHPDEFPKELVDAIAKAFPNIKRIEVEPLPDKFVLLKVEFIDGDGEGRVAFAVPTPDGETALHEYLVRNPSA [r9_678_TrMRF] | 1.14 ± 0.056 |
| SAGGSSPEELAEKAINEAMEKFGFKEISEIKIQKEDDGVRITIRMPNNGYTIEIDYEDGKITEIQPWSAGGS [r16_171_TrROS] | 1.1 ± 0.083 |
| SAGGSAGGSAGGNVITVFIPNYQIITIHLSPEPGRIPIEVYPPNGKKEEWPIPDIKELIQSAGGSAGGSAGG [r7_769_TrROS] | 1.01 ± 0.13 |
| SAGGSAGGGPKVTVEVTESKVYELEDGSYVAVNTYTVTFEAEGKTVKVTFYRTFPKGFAGGPFSSAGGSAGG [r6_799_TrMRF] | 2.42 ± 0.17 |
| SAGGSAGGSMTIVIPKKTLEKMKPETIKKLLELAKELNTTITMNENAITIPVGKGTEEALKALSAGGSAGGS [r12_945_TrMRF] | 1.28 ± 0.073 |
| SAGMKVIEIDVPVSKIEEVKEELEAEAKEKGLNIKFEKLEKLPGNKYKMIVTVTDPTSNEKTIYNINILSAG [r5_41_JUSTAS] | 4.06 ± 0.12 |
| SAGPEKPFDIVIVEVKSMEVHEDPNGRRSVRIPVVARIPGGYYIRFEIWINPPTGNVSIDWEIVPLDDSAGG [r19_320_TrROS] | 3.82 ± 0.14 |
| SMTLTLEDGKLTLTVTETRTTVERDAADPGKWTTRTETRTVTLTLPLEDLEALKKLLEALPPGARVELVPSA [r9_476_TrROS_Hall] | 3.91 ± 0.29 |
| SAEVRVEIVEVDEERGVIRIEITVPEDLPEEEILEELARRLEELARERGYEVRIERREDGTYRIEIRFPSAG [r14_865_TrROS_Hall] | 4.25 ± 0.11 |
| SAGGSAGGSAGGKKYIIKNKKTNKYIEVDVIEKDGKLYVYDKKTGKVHEVSLKDLEIVPSAGGSAGGSAGGS [r10_28_TrROS_Hall] | 2.33 ± 0.089 |
| SAGGSAGGSAGGMLLSPEEAEKLAAELKAKENVTIKVTPEPSPGKVKVEIIKTKGPKLVSAGGSAGGSAGGS [r10_402_JUSTAS] | 0.418 ± 0.16 |
| GHRIKVNTVHTPSGTFSLTATVRYPDGTTVTYSFNLPSSPNDTFSVSVPESVPLTTVTTSTFQGDTETPTSS [r1_70_JUSTAS] | 1.49 ± 0.12 |
| SMTIKLPSKDFKLETLPDGTIKLTVKEPDGTVVTYTFPKGDKITKIEKITPDTIKLTFEKKPRLNPEILLSA [r9_501_JUSTAS] | 3.07 ± 0.22 |
| SAGGSAGGSAGSLPIPISSESVSSLPESPLSVVTVKLPDGKTVVITVDLNSSSSSVTPLPSAGGSAGGSAGG [r17_369_JUSTAS] | 1.37 ± 0.051 |
| SAGGSAGGSAGGDPLPVTFTIPLEDDTTAKAVLSGDLVEVTIPNGKKYVLIPNPAVLGSSAGGSAGGSAGGS [r10_1176_TrMRF] | -0.216 ± 0.15 |
| SAGGSAMPDLAAAPGVTRVEPYPDGLVEIHLDGSEEARDEIEERLRAAGDFEIYRLPDRDTLLVRASAGGSA [r15_554_TrMRF] | -0.025 ± 0.29 |
| SAGGSAGGSAMIVVPVDLVRERLDELVFRGEDGVEYRAEVRVFEVGDRPVAVIDLRPLDEDGSAGGSAGGSA [r18_447_TrMRF] | 0.823 ± 0.048 |
| SAGGSAGGSMTTTVERSPSGKTTVTETETRKDAAGNEYTLVTTTTFDPNTTTSTTTTTVVPVSSAGGSAGGS [r12_57_JUSTAS] | 1.51 ± 0.086 |
| KTRHIPIRDALDEAEELIDEGPRMVKITIYNNNGQKHEIETLKDILDKLKSNFPGMPPDNMKVQVEVIPPPS [r1_325_TrROS] | -0.211 ± 0.3 |
| SAGGSAGGKIAVIPYVPEEDIPPELRELFGKEGSLSPEEFQELFAEAVARELGEEGAIDAVIVESAGGSAGG [r6_654_TrMRF] | 0.778 ± 0.15 |
| SAGGMKTSAEELVERLKKELEAKGLKPKEVKKLPDGSLLVEFEEDVVVYIDAKTGTVTVLTPEEYEKLSAGG [r13_717_JUSTAS] | 2.4 ± 0.14 |

| Sequence | folding stability dG unfold [kcal/mol] |
| --- | --- |
| SPPVRARIRVERLPDGSVRVELEVEFPDGVRVRIETLEAPPETGVVRVRARFFPPDGSSVEFEFTFPLLRSA [r9_1179_TrMRF] | 4.52 ± 0.11 |
| SAGGSAGGSMVIRVTVKLPNGEEKVFEIEVSEEELKNMSIEELKKLAEELGLPEDVKIELVPPSAGGSAGGS [r12_742_TrROS_Hall] | 3.33 ± 0.19 |
| SAGMTITIPAPPSLSPEEAVALAIERVKEEYPELLTPGSEVNIVVIREDPATGTSQTLTVTVPFPEGIFSAG [r5_916_JUSTAS] | 1.79 ± 0.086 |
| SMKTVVIKIRKKDGKVTLEEIREAIKALLPPGAKVKLTEEELEKLVEELEKKTGKEITADDLVIVVEVEPSA [r9_197_TrROS_Hall] | 2.51 ± 0.16 |
| SALLVAPDGTVVKPETIKTTVETFTTYFLPPGKPVTRKGVKEYTVTVTTTTYTTPNPTLTVETTVTTVGSAG [r14_291_JUSTAS] | 0.392 ± 0.2 |
| SAGGMIELTIVVKTKEEAEKAAEELARKLAEELGVEVTVTSVEVEEVEDPETGETYLVVRVRIEVKPSAGGS [r8_171_TrROS_Hall] | 4.53 ± 0.23 |
| SAGGSAGGSAGMGVPPDGATLRFTYPESPSSTRTFTSPEEAAAWIAANLPPEHSVSFSPASAGGSAGGSAGG [r11_983_JUSTAS] | 0.684 ± 0.084 |
| SAGGSAGGMTSDKPVLPALIRVYYPNEGREETIPVLLGEDMPLEEALRIARELAHPDAKAEILNSAGGSAGG [r6_440_TrMRF] | 0.395 ± 0.06 |
| SAGGSAGGSPGFIIRVRTWERDPKDGKWKPKRERPLTFPPDDADDFADKLNSESPNVEVEIMPSAGGSAGGS [r12_342_TrROS] | -0.0797 ± 0.15 |
| SAGGSAGGSAGGGSVTIEIEFEAKPGEKFTVTIKGFKKVEITEIYPFDGKVRIKVKVTPESAGGSAGGSAGG [r7_292_TrMRF] | 3.67 ± 0.13 |
| SAGGSAGGSAIMINIDLEYDPGDGTIELEYKISFMDPGGKPMGMITIRLEIRIPPPEPDPDDKSAGGSAGGS [r12_254_TrROS] | 3.37 ± 0.46 |
| SAGMAEKIKAELEKKGYKYEIEEVKDPNNDKTYLIVKIYPKDGKEYIIIFDKEKGEVIKKIPSDEPNILSAG [r5_938_JUSTAS] | 1.64 ± 0.24 |
| SAGGSAGGSPLPYLTEDGEVQVVVRIDNSTGTTTVTLTGPDGKLLKTFSVSTDGPAFVVVRAGSAGGSAGGS [r12_960_TrMRF] | 1.72 ± 0.064 |
| SAGGSAGGMKEGETRTITFWANVKPGDLEKIANHMMKFGWPIKKVDIKRHPENGMVRVSITIRKSAGGSAGG [r6_514_TrROS] | 2.43 ± 0.052 |
| SAGGSAGGSAGGMIVETLGDSPETVTLVKLPNKPIIRTYDPVTGTWTIYDPDTNKIYEISAGGSAGGSAGGS [r10_434_JUSTAS] | 1.26 ± 0.098 |
| SAGGSAGGSAGGWIFIIEIDPDNGEIKINWPNGNSIKIPPEDLDNMPIEIKPIPPPPNDKSAGGSAGGSAGG [r7_99_TrROS] | 1.87 ± 0.28 |
| SAKILEIKPLPDGTVIIKIPVDAPEDVDPKEVKILVKSEEGVKEAEILEDGTIDIVVENVKDVKIEIFVESA [r9_722_TrMRF] | 0.359 ± 0.1 |
| SAGGNMFMIKIDDPDALKELANEPGISSVHYNPNNGRYTVMFNFPDGMRTFEIDAEDGKIKEIEPFPSAGGS [r8_251_TrROS] | 1.79 ± 0.039 |
| SAGGLPPGWKPIDIMVLVPPGEPLTEDQVEELAKEIARELQEKGVTIDVRVWPTDDWYFVSVDIQVPDSAGG [r13_442_TrROS] | 1.73 ± 0.18 |
| SAGGSIPLSDIKDIEIHPWRHPNNNYPMYRIRIDNGRDMVIFPGAIFEFDPDDGKIEEVKPMPFGDSAGGSA [r2_374_TrROS] | 0.238 ± 0.14 |
| SAGGETVEIEVEMSPEEVREAIKKAAEALDAEVVEVKYDKETKKVTITVKKGATEEELRKALEEALKSAGGS [r8_338_TrROS_Hall] | 2.19 ± 0.095 |

Assay: folding stability dG unfold from chymotrypsin proteolysis; higher = more stable
Outline: as §1

| Sequence | folding stability dG unfold [kcal/mol] |
| --- | --- |
| SHPDEFPKELVDAIAKAFPNIKRIEVEPLPDKFVLLKVEFIDGDGEGRVAFAVPTPDGETALHEYLVRNPSA [r9_678_TrMRF] | 1.23 ± 0.062 |
| SAGGSSPEELAEKAINEAMEKFGFKEISEIKIQKEDDGVRITIRMPNNGYTIEIDYEDGKITEIQPWSAGGS [r16_171_TrROS] | 0.23 ± 0.2 |
| SAGGSAGGSAGGNVITVFIPNYQIITIHLSPEPGRIPIEVYPPNGKKEEWPIPDIKELIQSAGGSAGGSAGG [r7_769_TrROS] | -0.306 ± 0.14 |
| SAGGSAGGGPKVTVEVTESKVYELEDGSYVAVNTYTVTFEAEGKTVKVTFYRTFPKGFAGGPFSSAGGSAGG [r6_799_TrMRF] | 2.57 ± 0.14 |
| SAGGSAGGSMTIVIPKKTLEKMKPETIKKLLELAKELNTTITMNENAITIPVGKGTEEALKALSAGGSAGGS [r12_945_TrMRF] | 1.05 ± 0.025 |
| SAGMKVIEIDVPVSKIEEVKEELEAEAKEKGLNIKFEKLEKLPGNKYKMIVTVTDPTSNEKTIYNINILSAG [r5_41_JUSTAS] | 4.08 ± 0.051 |
| SAGPEKPFDIVIVEVKSMEVHEDPNGRRSVRIPVVARIPGGYYIRFEIWINPPTGNVSIDWEIVPLDDSAGG [r19_320_TrROS] | 4.21 ± 0.12 |
| SMTLTLEDGKLTLTVTETRTTVERDAADPGKWTTRTETRTVTLTLPLEDLEALKKLLEALPPGARVELVPSA [r9_476_TrROS_Hall] | 4.9 ± 0.26 |
| SAEVRVEIVEVDEERGVIRIEITVPEDLPEEEILEELARRLEELARERGYEVRIERREDGTYRIEIRFPSAG [r14_865_TrROS_Hall] | 4.26 ± 0.071 |
| SAGGSAGGSAGGKKYIIKNKKTNKYIEVDVIEKDGKLYVYDKKTGKVHEVSLKDLEIVPSAGGSAGGSAGGS [r10_28_TrROS_Hall] | 2.56 ± 0.036 |
| SAGGSAGGSAGGMLLSPEEAEKLAAELKAKENVTIKVTPEPSPGKVKVEIIKTKGPKLVSAGGSAGGSAGGS [r10_402_JUSTAS] | 0.54 ± 0.061 |
| GHRIKVNTVHTPSGTFSLTATVRYPDGTTVTYSFNLPSSPNDTFSVSVPESVPLTTVTTSTFQGDTETPTSS [r1_70_JUSTAS] | 1.69 ± 0.18 |
| SMTIKLPSKDFKLETLPDGTIKLTVKEPDGTVVTYTFPKGDKITKIEKITPDTIKLTFEKKPRLNPEILLSA [r9_501_JUSTAS] | 3.65 ± 0.053 |
| SAGGSAGGSAGSLPIPISSESVSSLPESPLSVVTVKLPDGKTVVITVDLNSSSSSVTPLPSAGGSAGGSAGG [r17_369_JUSTAS] | 1.12 ± 0.032 |
| SAGGSAGGSAGGDPLPVTFTIPLEDDTTAKAVLSGDLVEVTIPNGKKYVLIPNPAVLGSSAGGSAGGSAGGS [r10_1176_TrMRF] | -0.232 ± 0.22 |
| SAGGSAMPDLAAAPGVTRVEPYPDGLVEIHLDGSEEARDEIEERLRAAGDFEIYRLPDRDTLLVRASAGGSA [r15_554_TrMRF] | -0.165 ± 0.55 |
| SAGGSAGGSAMIVVPVDLVRERLDELVFRGEDGVEYRAEVRVFEVGDRPVAVIDLRPLDEDGSAGGSAGGSA [r18_447_TrMRF] | 0.994 ± 0.047 |
| SAGGSAGGSMTTTVERSPSGKTTVTETETRKDAAGNEYTLVTTTTFDPNTTTSTTTTTVVPVSSAGGSAGGS [r12_57_JUSTAS] | 1.64 ± 0.048 |
| KTRHIPIRDALDEAEELIDEGPRMVKITIYNNNGQKHEIETLKDILDKLKSNFPGMPPDNMKVQVEVIPPPS [r1_325_TrROS] | -0.0938 ± 0.22 |
| SAGGSAGGKIAVIPYVPEEDIPPELRELFGKEGSLSPEEFQELFAEAVARELGEEGAIDAVIVESAGGSAGG [r6_654_TrMRF] | 0.721 ± 0.037 |
| SAGGMKTSAEELVERLKKELEAKGLKPKEVKKLPDGSLLVEFEEDVVVYIDAKTGTVTVLTPEEYEKLSAGG [r13_717_JUSTAS] | 2.68 ± 0.05 |
